From patent US20260265354A1 (JIANGSU MABWELL HEALTH PHARMACEUTICAL R AND D, published 2026)
Numbering of substitutions follows the chain as printed.

T1: Nectin-like-2 (UniProt Q9BY67 45-374, limits assumed)
T1 construct: Bought recombinant protein; also called CADM1; IgSF4
T1 sequence (looked up): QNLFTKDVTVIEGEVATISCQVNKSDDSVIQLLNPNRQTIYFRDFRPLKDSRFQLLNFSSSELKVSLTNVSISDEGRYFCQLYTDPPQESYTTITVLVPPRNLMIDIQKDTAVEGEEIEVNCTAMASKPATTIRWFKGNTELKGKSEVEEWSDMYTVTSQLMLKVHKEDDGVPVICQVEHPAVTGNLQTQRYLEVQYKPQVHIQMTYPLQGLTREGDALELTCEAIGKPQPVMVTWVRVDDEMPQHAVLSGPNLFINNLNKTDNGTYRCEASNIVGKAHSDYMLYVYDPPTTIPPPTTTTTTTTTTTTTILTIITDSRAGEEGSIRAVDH

T2: recombinant human Nectin-4 protein (human, UniProt Q96NY8 32-349)
T2 construct: Prepared in-house (Jiangsu Mabwell) by transient transfection of CHO cells; also called PVRL-4; PRR-4
T2 sequence: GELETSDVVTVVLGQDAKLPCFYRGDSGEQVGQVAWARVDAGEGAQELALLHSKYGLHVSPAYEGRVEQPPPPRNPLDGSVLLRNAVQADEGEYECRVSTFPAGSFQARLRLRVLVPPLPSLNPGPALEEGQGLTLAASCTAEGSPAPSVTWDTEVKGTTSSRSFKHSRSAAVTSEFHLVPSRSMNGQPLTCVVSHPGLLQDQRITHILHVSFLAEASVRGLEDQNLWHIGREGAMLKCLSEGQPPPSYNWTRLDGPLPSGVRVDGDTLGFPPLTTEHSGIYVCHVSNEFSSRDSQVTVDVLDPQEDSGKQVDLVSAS

T3: Nectin-like-3 (UniProt Q8N3J6 25-367, limits assumed)
T3 construct: Bought recombinant protein; also called CADM2; IgSF4D
T3 sequence (looked up): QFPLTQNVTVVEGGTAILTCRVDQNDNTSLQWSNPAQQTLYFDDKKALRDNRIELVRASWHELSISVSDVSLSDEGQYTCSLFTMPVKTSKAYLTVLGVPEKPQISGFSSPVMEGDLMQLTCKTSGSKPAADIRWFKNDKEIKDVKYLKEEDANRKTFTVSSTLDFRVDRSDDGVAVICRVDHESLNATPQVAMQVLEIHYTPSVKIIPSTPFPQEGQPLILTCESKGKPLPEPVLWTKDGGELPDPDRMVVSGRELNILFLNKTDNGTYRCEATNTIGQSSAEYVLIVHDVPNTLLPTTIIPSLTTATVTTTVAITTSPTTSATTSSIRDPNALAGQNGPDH

T4: Nectin-like-5 (UniProt P15151 21-343)
T4 construct: Bought recombinant protein; also called CD155; PVR
T4 sequence (looked up): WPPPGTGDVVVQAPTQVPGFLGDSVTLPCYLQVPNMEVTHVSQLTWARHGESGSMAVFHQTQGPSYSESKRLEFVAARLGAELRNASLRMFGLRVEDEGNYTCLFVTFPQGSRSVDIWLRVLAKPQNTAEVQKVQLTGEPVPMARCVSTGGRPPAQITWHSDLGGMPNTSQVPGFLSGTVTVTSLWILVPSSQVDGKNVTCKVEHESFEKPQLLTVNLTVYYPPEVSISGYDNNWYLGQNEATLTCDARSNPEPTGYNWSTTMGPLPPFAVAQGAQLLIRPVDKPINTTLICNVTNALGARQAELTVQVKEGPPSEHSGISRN

T5: Nectin-like-1 (UniProt Q8N126 25-330, limits assumed)
T5 construct: Bought recombinant protein; also called CADM3; IgSF4B
T5 sequence (looked up): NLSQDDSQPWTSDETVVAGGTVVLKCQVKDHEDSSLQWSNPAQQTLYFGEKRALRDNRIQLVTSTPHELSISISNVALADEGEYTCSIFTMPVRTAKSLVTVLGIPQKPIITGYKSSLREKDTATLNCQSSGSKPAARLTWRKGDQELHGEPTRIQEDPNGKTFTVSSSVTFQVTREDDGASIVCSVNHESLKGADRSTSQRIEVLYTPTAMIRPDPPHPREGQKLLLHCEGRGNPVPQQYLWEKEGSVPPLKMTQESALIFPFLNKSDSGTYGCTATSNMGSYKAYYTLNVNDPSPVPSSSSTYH

T6: Nectin-1 (UniProt Q15223 31-334, limits assumed)
T6 construct: Bought recombinant protein; also called CD111; PVRL-1
T6 sequence (looked up): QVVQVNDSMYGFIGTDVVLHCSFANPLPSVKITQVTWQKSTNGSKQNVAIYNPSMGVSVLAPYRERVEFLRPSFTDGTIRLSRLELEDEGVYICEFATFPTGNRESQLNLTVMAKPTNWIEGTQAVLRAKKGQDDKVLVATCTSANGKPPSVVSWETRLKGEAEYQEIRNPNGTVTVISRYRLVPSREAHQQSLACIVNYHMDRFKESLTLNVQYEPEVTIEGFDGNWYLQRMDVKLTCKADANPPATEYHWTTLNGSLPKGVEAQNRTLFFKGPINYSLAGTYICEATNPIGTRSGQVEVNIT

B1: Antibody MM11 (antibody, mouse IgG1, kappa, V domains shown)
VH: DVQLQESGPGLVKPSQSLSLTCSVTGYSITSNFYWNWIRQFPGNRLEWMGYISYDGSNNYNPSLKNRISISRDTSKNQFFLKLNSVTTEDTATYYCVRADYWGQGTLVTVSA
VL: DTVMTQTPLSLPVSLGDQASISCRSSQSLESSDGHAYLNWYLQKPGQSPQLLIYRVSNRFSGVLHRFSGSGSGTDFTLKISRVEAEDLGVYFCLQFTHVPFTFGSGTKLEIKR
notes: Mouse monoclonal antibody from hybridoma; also called Nectin-4 mouse monoclonal antibody MM11; mouse antibody MM11
B2: Antibody R012 (antibody, V domains shown)
VH: SKSVEESGGRLVTPGTPLTLTCTVSGFSLSTYAMSWVRQAPGKGLEYIGIISGRGTTYYASWLKGRFTISKTSTTVDLKITSPTTEDTATYFCARDAGISDVYTGYFNLWGQGTLVTVSS
VL: QPVLAQLPSASAALGASAKLTCTLSSAHRTYTIAWYQQQQGEAPRYLMMLKSDGSYTKGTGVPDRFSGSSSGADRYLIISSVQAADEADYYCGADDSGGYVFGGGTQLTVTG
notes: Rabbit monoclonal antibody from phage display; also called Nectin-4 rabbit monoclonal antibody R012; rabbit antibody R012
B3: Antibody R036 (antibody, V domains shown)
VH: SQSVEESGGRLVTPGTPLTLTCTVSGFSLSSYAMSWVRQAPGKGLEYIGIIGGRGTTYYAIWAKGRFTISKTSTTVDLKITSPTTEDTATYFCARDAGTTYVGTTYVATGYFNLWGQGTLVTVSS
VL: B2 VL with A5T, L7P, R29K, M49I, K58R, A85D
notes: Rabbit monoclonal antibody from phage display; also called Nectin-4 rabbit monoclonal antibody R036; rabbit antibody R036

target: T1, Nectin-like-2; assay: ELISA, coated antigen, antibody at 10 ng/ml
Method: (§1) Coating: Nectin-1, Nectin-2, Nectin-3, Nectin-4, Nectin-like-1, Nectin-like-2, Nectin-like-3, Nectin-like-4, and Nectin-like-5 were diluted to 5 μg/ml in coating buffer (carbonate buffer, pH 9.6) respectively. A 96-well plate was coat with 100 μl per well and incubated overnight at 2-8° C.;
(§2) Sample loading: The plate was taken out, patted dry, and washed twice with 200 μl/well of PBST, then patted dry. The Nectin-4 antibodies prepared in Example 1 (antibody MM11, antibody R012, and antibody R036) were diluted with 1% BSA/PBST to concentrations of 10 μg/ml, 1 μg/ml, 100 ng/ml, and 10 ng/ml, respectively. 1% BSA/PBST solution for dilution was set as a blank control. 100 μl per well was added to the 96-well plate, and incubated at room temperature for 2 hours;
(§3) Reaction termination and plate reading: 100 μl/well of 1 mol/L H3PO4 was added to terminate the reaction and the plated was read. The absorbances of wells in the plate at 450 nm with 650 nm as reference wavelength were read and recorded as OD_{450 nm-650 nm}.

Row | Binder | OD detection value
1 | B1 | 0.007 OD450 nm-650 nm
2 | B2 | 0.008 OD450 nm-650 nm
3 | B3 | 0.007 OD450 nm-650 nm

target: T2, recombinant human Nectin-4 protein; assay: ELISA, coated antigen, antibody at 10 ng/ml
Method: as §1, §2, §3

Row | Binder | OD detection value
4 | B1 | 0.58 OD450 nm-650 nm
5 | B2 | 0.748 OD450 nm-650 nm
6 | B3 | 0.73 OD450 nm-650 nm

target: T3, Nectin-like-3; assay: ELISA, coated antigen, antibody at 10 ng/ml
Method: as §1, §2, §3

Row | Binder | OD detection value
7 | B1 | 0.03 OD450 nm-650 nm
8 | B2 | 0.009 OD450 nm-650 nm
9 | B3 | 0.008 OD450 nm-650 nm

target: T4, Nectin-like-5; assay: ELISA, coated antigen, antibody at 1000 ng/ml
Method: as §1, §2, §3

Row | Binder | OD detection value
10 | B1 | 0.008 OD450 nm-650 nm
11 | B2 | 0.008 OD450 nm-650 nm
12 | B3 | 0.009 OD450 nm-650 nm

target: T1, Nectin-like-2; assay: ELISA, coated antigen, antibody at 1000 ng/ml
Method: as §1, §2, §3

Row | Binder | OD detection value
13 | B1 | 0.008 OD450 nm-650 nm
14 | B2 | 0.007 OD450 nm-650 nm
15 | B3 | 0.006 OD450 nm-650 nm

target: T5, Nectin-like-1; assay: ELISA, coated antigen, antibody at 1000 ng/ml
Method: as §1, §2, §3

Row | Binder | OD detection value
16 | B1 | 0.008 OD450 nm-650 nm
17 | B2 | 0.01 OD450 nm-650 nm
18 | B3 | 0.007 OD450 nm-650 nm

target: T6, Nectin-1; assay: ELISA, coated antigen, antibody at 1000 ng/ml
Method: as §1, §2, §3

Row | Binder | OD detection value
19 | B1 | 0.007 OD450 nm-650 nm
20 | B2 | 0.007 OD450 nm-650 nm
21 | B3 | 0.006 OD450 nm-650 nm
